Test results reported in patent US20130251640A1.

Molecular target: trypsin (trypsin-EDTA 0.25%, Sigma-Aldrich)
Assay: cell-based or functional assay

## PLL-FITC (poly-L-lysine conjugated with fluorescein isothiocyanate, FITC/PLL=10/1)
  change in FITC fluorescence signal (dequenching): > 34 fold
